Source: patent US7786356B2, “Method for the production of calendic acid, a fatty acid containing delta 8,10,12 conjugated double bonds and related fatty acids having a modification at the delta 9 position” (E.I. du Pont de Nemours and Company, priority 1999, dated 2010)

System: somatic soybean embryos
Test: Production of calendic acid in somatic soybean embryos expressing CalFad2-1 or CalFad2-2
Format: cell-based
Conditions: single somatic embryos
From the text: The open-reading frames of these cDNAs were amplified by PCR in order generate the appropriate flanking restriction enzyme sites for cloning into the soybean expression vector. The oligonucleotide primers used for amplification of the CalFad2-1 open-reading frame were: 5′-ttgcggccgc[…]-3′ (sense, SEQ ID NO:18) and 5′-ttgcggccg[…]-3′ (antisense, SEQ ID NO:19). The oligonucleotide primers used for amplification of the CalFad2-2 coding sequence were: 5′-agcggccgcTATACCATGGGCAAG-3′ (sense, SEQ ID NO:20) and 5′-tgcggccgcTATGTTAAACTTC-3′ (antisense, SEQ ID NO:21). [Note: The sequences shown in lower case contain an added NotI site along with additional bases to facilitate restriction enzyme digestion.] The template was the cDNA corresponding to either EST ecs1c.pk009.n14 (CalFad2-1) or EST ecs1c.pk08.a24 (CalFad2-2), and Pfu polymerase (Stratagene) was used for the amplification reactions. The resulting PCR products were subcloned into the intermediate vector pCR-Script AMP SK(+) (Stratagene) according to the manufacturer's protocol. The amplified CalFad2-1 and CalFad2-2 coding sequences were then released with NotI digestion and then subcloned into the corresponding site of the soybean expression vector pKS67.
The PCR amplified coding sequences of CalFad2-1 and CalFa2-2 were fused with the β-conglycinin promoter and phaseolin termination sequences in vector pKS67 was transformed into somatic soybean embryos as follows. To induce somatic embryos, cotyledons, 3-5 mm in length dissected from surface sterilized, immature seeds of a soybean cultivar A2872 or JACK-910 were cultured in the light or dark at 26° C. on an appropriate agar medium for 6-10 weeks. Somatic embryos that produce secondary embryos were then excised and placed into a suitable liquid medium. After repeated selection for clusters of somatic embryos that multiplied as early, globular staged embryos, the suspensions were maintained as described below.
Soybean embryogenic suspension cultures were maintained in 35 mL liquid media on a rotary shaker, 150 rpm, at 26° C. with florescent lights on a 16:8 hour day/night schedule. Cultures were subcultured every two weeks by inoculating approximately 35 mg of tissue into 35 mL of liquid medium.
Soybean embryogenic suspension cultures were then transformed with the vector pKS67 containing the coding sequence for CalFad2-1 and CalFad2-2 by the method of particle gun bombardment (Klein et al. (1987) Nature (London) 327:70, U.S. Pat. No. 4,945,050). A Du Pont Biolisticä PDS1000/HE instrument (helium retrofit) was used for these transformations.
To […] of a 60 mg/mL […] gold particle suspension were added (in order): 5 mL DNA (1 mg/mL), 20 ml spermidine (0.1 M), and […] CaCl2 (2.5 M). The particle preparation was then agitated for three minutes, spun in a microfuge for 10 seconds and the supernatant removed. The DNA-coated particles were then washed once in 400 mL 70% ethanol and resuspended in 40 mL of anhydrous ethanol. The DNA/particle suspension was sonicated three times for one second each. Five mL of the DNA-coated gold particles was then loaded on each macro carrier disk.
Approximately 300-400 mg of a two-week-old suspension culture was placed in an empty 60×15-mm petri dish and the residual liquid removed from the tissue with a pipette. For each transformation experiment, approximately 5 to 10 plates of tissue were bombarded. Membrane rupture pressure was set at 1100 psi and the chamber was evacuated to a vacuum of 28 inches mercury. The tissue was placed approximately 3.5 inches away from the retaining screen and bombarded three times. Following bombardment, the tissue was divided in half and placed back into liquid and cultured as described above.
Five to seven days post bombardment, the liquid media was exchanged with fresh media, and eleven to twelve days post bombardment with fresh media containing […] hygromycin. This selective media was refreshed weekly. […]

[1] = n = 5, ± standard deviation, weight % of total fatty acids

B1: CalFad2-1: Calendula officinalis fatty acid modifying enzyme (cDNA SEQ ID NO:1, protein SEQ ID NO:2) forming conjugated double bonds at delta-9 position (protein, listed as Calendula officinalis)
chain: MGKGASNKKVLERVPITKPPFEYNDLKKAVPPHCFSRPLFRSFYFLLHDIIVTCILFYVASNYIPMLPGFLSYIVWPVYWISQGVFLGRLWMIGHECGHHSFSNYRWVDDSVGFLIHTATLTPYFSFKYSHRNHHAHTNSMEYDEVHIPKRKSEALDLYFEFLGNNPMGLMITMLCKLTFGYAAYIMFNYTGKKHKSGGLASHFYPQSPLFNDSERNHVLFSDVGICIVLYACYRIVMVTGAMSAFYVYGIPWVIMSAILFAATYLQHTHPSIPHYDTTEWNWLRGALSTIDRDLGFFNMNKTHYHVIHHLFPVIPEYHAQEATEAIKPILGQYYKYDGTPFLKALWREMKDCIYVESDQGQKKQGIYWFKNKI
With B1 the “Other, Fatty Acid Weight %” value (n = 5, weight % of total fatty acids) was “≦1.3 Weight %”, the “16:0, Fatty Acid Weight %” value [1] was 12.2 ± 1.0 Weight % and the “18:0, Fatty Acid Weight %” value [1] was 3.5 ± 0.9 Weight %. The “18:1, Fatty Acid Weight %” value [1] was 9.0 ± 1.5 Weight %, the “18:2, Fatty Acid Weight %” value [1] was 52.2 ± 2.4 Weight % and the “18:3, Fatty Acid Weight %” value [1] was 18.8 ± 3.0 Weight %. For the same molecule, the “Calendic Acid, Fatty Acid Weight %” value [1] was 3.1 ± 1.0 Weight %.
